Results published in patent US20240052065A1 (Boehringer Ingelheim, published 2024).

Assays:
[1] = target: T1, recombinant human CDH3 [EC2-EC3] (human, UniProt P22223 216-440, limits assumed); assay: SPR (ProteOn XPR36), bispecific captured on protein A/G, CDH3 EC2-EC3 as analyte
T1 construct: no separate entry is named for EC3; also called HuCDH3_EC2-EC3; EC2-EC3 peptide

[2] = target: T2, recombinant human CDH3, full-length (human, UniProt P22223 108-654, limits assumed); assay: SPR (ProteOn XPR36), bispecific captured on protein A/G, CDH3 as analyte, 1:1 Langmuir fit
T2 construct: also called HuCDH3 full-length; human full-length CDH3
Experimental: (§1) The binding affinity of purified CDH3/TRAILR2 bispecific constructs for recombinant human CDH3 (either full-length, EC1-EC2 or EC2-EC3) was determined by Surface Plasmon Resonance (SPR), using a ProteOn XPR36 instrument (Bio-Rad). The running buffer and all dilutions (except where stated) were done in PBS-TEDTA. The GLM sensor chip (Bio-Rad) was normalized and pre-conditioned as per the manufacturers recommendations. The sensor chip was activated with equal mixture of EDC/s-NHS in the horizontal direction for 300 sec at a flow rate of 30 μl/min and immobilized with protein A/G (60 μg/ml in 10 mM acetate pH 4.5) in the horizontal direction for 300 sec at a flowrate of 30 μl/min resulting in 5000 RU of protein A/G on the surface. The sensor chip was deactivated with 1 M ethanolamine HCl in the horizontal direction for 300 sec at a flowrate of 30 μl/min.
(§2) For binding kinetic determination to CDH3, bispecific molecules were captured individually on the protein A/G surface vertically for 150 sec at a flowrate of 30 μl/min. The baseline was stabilized by injecting PBS-T-EDTA for 60 sec at a flowrate of 100 μl/min horizontally. The analyte (human full-length CDH3, CDH3 [EC1-EC2] or CDH3 [EC2-EC3]) was injected horizontally over the captured antibody for 300 sec at a flowrate of 30 μl/min and a dissociation for 1200 sec. The concentration of the analytes injected was 200 nM for the full-length CDH3 and 500 nM for EC1-EC2 and EC2-EC3.

[3] = target: T3, recombinant human CDH3 [EC1-EC2] (human, UniProt P22223 108-328, limits assumed); assay: as above
T3 construct: also called HuCDH3 EC1-EC2
Experimental: as §1, §2

Binder | binding result [1] | Kd [2] [nM] | Kd [3] [nM]
bispecific binding molecule CDH3/TRAILR2v2 (bispecific antibody, human IgG1, kappa, L234A L235A, also called CDH3/TR2v2) heavy: not shown light: DIVMTQSPLSLPVTPGEPASISCRSSQSLLHSYGYNYLDWYLQKPGQSPQLLIYLGSNRASGVPDRFSGSGSGTDFTLKISRVEAEDFGIYYCMQALQTPITFGQGTRLEIKRTVAAPSVFIFPPSDEQLKSGTASVVCLLNNFYPREAKVQWKVDNALQSGNSQESVTEQDSKDSTYSLSSTLTLSKADYEKHKVYACEVTHQGLSSPVTKSFNRGEC | no binding (tested: 500 nM analyte) | 9.93 | 11.4
bispecific binding molecule CDH3/TRAILR2v3 (bispecific antibody, human IgG1, kappa, L234A L235A, also called CDH3/TR2v3) heavy: not shown light: DIVMTQSPLSLPVTPGEPASISCRSSQSLMYSYGYNYLDWYLQKPGQSPQLLIYLGSNRASGVPDRFSGSGSGTDFTLKISRVEAEDVGIYYCMQALQTPPTFGQGTKVEIKRTVAAPSVFIFPPSDEQLKSGTASVVCLLNNFYPREAKVQWKVDNALQSGNSQESVTEQDSKDSTYSLSSTLTLSKADYEKHKVYACEVTHQGLSSPVTKSFNRGEC | no binding (tested: 500 nM analyte) | 1.08 | 0.85
